The values that follow come from patent US9395368B2, “Methods, agents and peptides for inducing an immune response to matrix metalloproteinase-2 expressing tumors” (New York University, priority 2010, dated 2016).

This assay has as its system Cord blood-derived CD4+/CD25- cells. Description: Priming of naive CD4+ T cells to Melan-A/MART-1 or NY-ESO-1 with DCs pre-incubated with MMP-2. The format is cell-based, human. Here is the method: (A) Cord blood-derived CD4^+/CD25^− cells were stimulated with autologous poly(I:C)-matured DCs pulsed with overlapping peptides spanning either Melan-A/MART-1 or NY-ESO-1. Prior to poly(I:C) addition, DCs were incubated with or without MMP-2 (active or heat-inactivated) for 1 h. MMP-2 enzymatic activity was controlled (FIG. 13C-D). After 15 days, CD4^+ T cells were stimulated with the Melan-A/MART-1 or NY-ESO-1 peptide pools (2 μM) for 6 h before intracellular staining of cytokines. Percentages of antigen-specific CD4^+ T cells, secreting indicated cytokines, are represented for all donors. (B) Contour plots showing percentages of cytokine-producing CD4^+ T cells are shown for representative donor CB45 primed to Melan-A/MART-1. Percentage of secreting cells upon peptide stimulation was considered specific/positive when it exceeded by more than twofold the background (cytokine-secreting cells in the absence of stimulation) and had more than 0.5% of responding cells (after background subtraction) for at least one cytokine. For each cytokine, 2 paired t-tests were used to compare priming in the presence of active MMP-2 to either priming in the absence of active MMP-2 or with HI MMP-2. The Bonferroni adjustment was used for multiple comparisons. P values≦0.025 (*) were considered statistically significant using a Bonferroni correction for 2 comparisons.
T Cell culture, stimulation and priming. Peripheral blood mononuclear cells (PBMCs) were purified from healthy donor-(HD) or cord blood donor-(CB) derived buffy coats (New York Blood Center) by Ficoll-Paque Plus (GE Healthcare) centrifugation. CD4^+/CD25^− cells were enriched (>90%) by magnetic cell sorting (Miltenyi Biotec) and primed/stimulated for 12-15 days either with irradiated (35Gy) autologous CD4^− cells or with autologous mature DCs in IMDM (GIBCO) supplemented with 1 mM HEPES (Life Technologies), 2 mM L-glutamine (Sigma), streptomycin (100 UI/mL)/penicillin (100 μg/mL) (Sigma) and 5% heat inactivated pooled human serum (PHS; Valley Biomedical) in the presence of rhIL-2 (10 UI/mL) and IL7 (5 ng/mL) (R&D Systems). Antigen presenting cells (CD4^− cells or DCs) were loaded either with peptides (2 μM) or with the MMP-2 protein (10 μg/mL) for 2 and 5 h, respectively. DCs were matured using the TLR3 agonist poly(I:C) at 5 μg/mL/10^6 DCs (Amersham). To generate T cell clones, we originally relied on our published methodology (Godefroy et al., 2006; Godefroy et al., 2007; the entire contents of each of which is incorporated herein by reference), involving enrichment of IFNγ-secreting cells upon short-term culture and peptide stimulation to generate MMP-2 responsive clones. Briefly, CD4^+ T cells were stimulated by CD4^− cells irradiated and pulsed with peptides for 12 days in the presence of rhIL-2 and rhIL-7. CD4^+ T cells were then restimulated with peptides for 3 hours before capturing IFNγ-secreting specific cells using a bispecific antibody coating T cells and capturing produced IFNγ. Positive cells were purified magnetically before being cloned. Although MMP-2-specific cells could be isolated, it was realized that IFNγ secretion was marginal compared to their secretion of IL-4 and TNFα. IFNγ-secreting cells in response to MMP-2 peptide pool were enriched by cytokine-guided magnetic cell sorting (Miltenyi Biotec) as described above and cloned the following day by limiting dilution in the presence of irradiated allogeneic PBMCs, 1 μg/mL phytohemagglutinin-L (Sigma) and 150 UI/mL rhIL-2. Tumor infiltrating lymphocytes (TILs) were provided by Pr. F. Jotereau and B. Dréno. They were obtained from tumor-invaded lymph nodes of melanoma patients (stage Mb) and expanded ex vivo. These patients received autologous TILs and IL-2 infusions in a clinical trial (Labarriere et al., 2002). This protocol was approved by the Institutional Ethics Committee and registered with regulatory state authority in France (Nantes). […]

Setting [1] is: DCs pre-incubated before poly(I:C) maturation.

B1: active MMP-2: Purified human MMP-2 (mixture of the proenzyme (50%) and the active form (50%)) purchased from Biomol (protein, listed as Homo sapiens)
chain: MEALMARGALTGPLRALCLLGCLLSHAAAAPSPIIKFPGDVAPKTDKELAVQYLNTFYGCPKESCNLFVLKDTLKKMQKFFGLPQTGDLDQNTIETMRKPRCGNPDVANYNFFPRKPKWDKNQITYRIIGYTPDLDPETVDDAFARAFQVWSDVTPLRFSRIHDGEADIMINFGRWEHGDGYPFDGKDGLLAHAFAPGTGVGGDSHFDDDELWTLGEGQVVRVKYGNADGEYCKFPFLFNGKEYNSCTDTGRSDGFLWCSTTYNFEKDGKYGFCPHEALFTMGGNAEGQPCKFPFRFQGTSYDSCTTEGRTDGYRWCGTTEDYDRDKKYGFCPETAMSTVGGNSEGAPCVFPFTFLGNKYESCTSAGRSDGKMWCATTANYDDDRKWGFCPDQGYSLFLVAAHEFGHAMGLEHSQDPGALMAPIYTYTKNFRLSQDDIKGIQELYGASPDIDLGTGPTPTLGPVTPEICKQDIVFDGIAQIRGEIFFFKDRFIWRTVTPRDKPMGPLLVATFWPELPEKIDAVYEAPQEEKAVFFAGNEYWIYSASTLERGYPKPLTSLGLPPDVQRVDAAFNWSKNKKTYIFAGDKFWRYNEVKKKMDPGFPKLIADAWNAIPDNLDAVVDLQGGGHSYFFKGAYYLKLENQSLKSVKFGSIKSDWLGC
In the case of B1, for the setting “10 cord blood donors, 15 days”, the “antigen-specific CD4+ T cells secreting IL-4, mean” value is on record as 2.50% and the “antigen-specific CD4+ T cells secreting IL-13, mean” value came out at 0.08%. Under setting [1], the “IL-4, mean of differences versus priming without MMP-2” value turned out to be 1.85 and the “IL-13, mean of differences versus priming without MMP-2” value turned out to be 0.07. The “production of type-1 cytokines (IFNγ and IL-2) upon peptide re-stimulation” value (Melan-A/MART-1- and NY-ESO-1-specific primed CD4+ T cells) was “failed to produce”.
